From patent US20150038673A1 come the findings set out here.

Bridge positions count the residues as written; N and C are the ends. Square brackets hold non-standard residues; d marks the D form.

Sequences and labels used below:
B1: ECII-25AA Cys/Ser mutant (Gln-)cyclopeptide (formula VII) (peptide)
peptide: cyclo(ARAESDEARRCYNDPKCSDFVTNRQ)
modifications: disulfide 11-17
SMILES: CC(C)[C@@H]1NC(=O)[C@H](Cc2ccccc2)NC(=O)[C@H](CC(=O)O)NC(=O)[C@H](CO)NC(=O)[C@@H]2CSSC[C@H](NC(=O)[C@H](CCCNC(=N)N)NC(=O)[C@H](CCCNC(=N)N)NC(=O)[C@H](C)NC(=O)[C@H](CCC(=O)O)NC(=O)[C@H](CC(=O)O)NC(=O)[C@H](CO)NC(=O)[C@H](CCC(=O)O)NC(=O)[C@H](C)NC(=O)[C@H](CCCNC(=N)N)NC(=O)[C@H](C)NC(=O)[C@H](CCC(N)=O)NC(=O)[C@H](CCCNC(=N)N)NC(=O)[C@H](CC(N)=O)NC(=O)[C@H]([C@@H](C)O)NC1=O)C(=O)N[C@@H](Cc1ccc(O)cc1)C(=O)N[C@@H](CC(N)=O)C(=O)N[C@@H](CC(=O)O)C(=O)N1CCC[C@H]1C(=O)N[C@@H](CCCCN)C(=O)N2
B2: 3 Cys-containing β1-ECII-18AA Cys/Cys cyclopeptide (peptide)
peptide: cyclo(ADEARRCYNDPKCCDFVQ)
modifications: also: three Cys (7, 13, 14), disulfide pairing not defined
B3: linear ECII-18AA Cys/Ser mutated (Gln18-)peptide (peptide)
peptide: ADEARRCYNDPKCSDFVQ
B4: ECII-18AA Cys/Ser mutant (Gln-)cyclopeptide (formula VI) (peptide)
peptide: cyclo(ADEARRCYNDPKCSDFVQ)
modifications: disulfide 7-13
SMILES: CC(C)[C@@H]1NC(=O)[C@H](Cc2ccccc2)NC(=O)[C@H](CC(=O)O)NC(=O)[C@H](CO)NC(=O)[C@@H]2CSSC[C@H](NC(=O)[C@H](CCCNC(=N)N)NC(=O)[C@H](CCCNC(=N)N)NC(=O)[C@H](C)NC(=O)[C@H](CCC(=O)O)NC(=O)[C@H](CC(=O)O)NC(=O)[C@H](C)NC(=O)[C@H](CCC(N)=O)NC1=O)C(=O)N[C@@H](Cc1ccc(O)cc1)C(=O)N[C@@H](CC(N)=O)C(=O)N[C@@H](CC(=O)O)C(=O)N1CCC[C@H]1C(=O)N[C@@H](CCCCN)C(=O)N2
B5: linear non-mutated 3 Cys-containing ECII-25AA Cys/Cys (Gln25) peptide (peptide)
peptide: ARAESDEARRCYNDPKCCDFVTNRQ
B6: 3 Cys-containing β1-ECII-25AA Cys/Cys cyclopeptide (peptide)
peptide: cyclo(ARAESDEARRCYNDPKCCDFVTNRQ)
modifications: also: three Cys (11, 17, 18), disulfide pairing not defined
B7: β1-ECII-25AA Ser/Cys mutant (Gln-)cyclopeptide (formula XI) (peptide)
peptide: cyclo(ARAESDEARRCYNDPKSCDFVTNRQ)
modifications: disulfide 11-18 (inferred)
B8: β1-ECII-18AA Ser/Cys mutant (Gln-)cyclopeptide (formula X) (peptide)
peptide: cyclo(ADEARRCYNDPKSCDFVQ)
modifications: disulfide 7-14 (inferred)
B9: β1-ECII-18AA Cys/Ser cyclopeptide mutant with D-Glu ring closure (formula VIII) (peptide)
peptide: cyclo(ADEARRCYNDPKCSDFV[dE])
modifications: disulfide 7-13
SMILES: CC(C)[C@@H]1NC(=O)[C@H](Cc2ccccc2)NC(=O)[C@H](CC(=O)O)NC(=O)[C@H](CO)NC(=O)[C@@H]2CSSC[C@H](NC(=O)[C@H](CCCNC(=N)N)NC(=O)[C@H](CCCNC(=N)N)NC(=O)[C@H](C)NC(=O)[C@H](CCC(=O)O)NC(=O)[C@H](CC(=O)O)NC(=O)[C@H](C)NC(=O)[C@@H](CCC(=O)O)NC1=O)C(=O)N[C@@H](Cc1ccc(O)cc1)C(=O)N[C@@H](CC(N)=O)C(=O)N[C@@H](CC(=O)O)C(=O)N1CCC[C@H]1C(=O)N[C@@H](CCCCN)C(=O)N2
B10: β1-ECII-18AA Ser/Cys cyclopeptide mutant with D-Glu ring closure (formula XII) (peptide)
peptide: cyclo(ADEARRCYNDPKSCDFV[dE])
modifications: disulfide 7-14 (inferred)
B11: ECII-22AA Cys/Ser mutant (Gly-)cyclopeptide (formula IX′) (peptide)
peptide: cyclo(RAESDEARRCYNDPKCSDFVTG)
modifications: disulfide 10-16
SMILES: CC(C)[C@@H]1NC(=O)[C@H](Cc2ccccc2)NC(=O)[C@H](CC(=O)O)NC(=O)[C@H](CO)NC(=O)[C@@H]2CSSC[C@H](NC(=O)[C@H](CCCNC(=N)N)NC(=O)[C@H](CCCNC(=N)N)NC(=O)[C@H](C)NC(=O)[C@H](CCC(=O)O)NC(=O)[C@H](CC(=O)O)NC(=O)[C@H](CO)NC(=O)[C@H](CCC(=O)O)NC(=O)[C@H](C)NC(=O)[C@H](CCCNC(=N)N)NC(=O)CNC(=O)[C@H]([C@@H](C)O)NC1=O)C(=O)N[C@@H](Cc1ccc(O)cc1)C(=O)N[C@@H](CC(N)=O)C(=O)N[C@@H](CC(=O)O)C(=O)N1CCC[C@H]1C(=O)N[C@@H](CCCCN)C(=O)N2
B12: cyc22AA Cys/Cys, 3 cysteine-containing cyclic β1-ECII 22AA peptide with a Gly closure site (peptide)
peptide: cyclo(RAESDEARRCYNDPKCCDFVTG)
modifications: also: disulphide pairing among Cys10, Cys16, Cys17 not defined

For one assay, the target named is anti-β1-ECII antibodies of GST/β1-ECII-immunized antibody-positive rats (sera or isolated IgG fractions) (rat). As to the kind of experiment: dose-dependent ELISA competition, n=6 rat sera. (In general: In an ELISA, binding on a coated surface is turned into a signal by an enzyme label.)
The molecule B1 showed a decrease in free anti-beta1-ECII antibodies (%) at 8-fold molar excess of peptide of 30%, a decrease in free anti-beta1-ECII antibodies (%) at 20-fold molar excess of peptide of 49% and a decrease in free anti-beta1-ECII antibodies (%) at 80-fold molar excess of peptide of 83%.

In turn, B2 displayed a decrease in free anti-beta1-ECII antibodies (%) at 8-fold molar excess of peptide of 46%, a decrease in free anti-beta1-ECII antibodies (%) at 20-fold molar excess of peptide of 56% and a decrease in free anti-beta1-ECII antibodies (%) at 80-fold molar excess of peptide of 71%.

B3 gave a decrease in receptor antibody-titers (%) at 8-fold molar excess of peptide of 24%, a decrease in receptor antibody-titers (%) at 20-fold molar excess of peptide of 35% and a decrease in receptor antibody-titers (%) at 80-fold molar excess of peptide of 50%.

For the molecule B4, the decrease in free anti-beta1-ECII antibodies (%) at 8-fold molar excess of peptide turned out to be 53%, the decrease in free anti-beta1-ECII antibodies (%) at 20-fold molar excess of peptide amounted to 66% and the decrease in free anti-beta1-ECII antibodies (%) at 80-fold molar excess of peptide is 85%.

In turn, B5 showed a decrease in receptor antibody-titers (%) at 8-fold molar excess of peptide of 24%, a decrease in receptor antibody-titers (%) at 20-fold molar excess of peptide of 35% and a decrease in receptor antibody-titers (%) at 80-fold molar excess of peptide of 50%.

A further assay concerns the target anti-β1-ECII antibodies in rat sera reacting with both the Cys/Ser and the Ser/Cys mutated cyclopeptides (type2 reaction, n=5) (rat). As to the kind of experiment: ELISA competition, type2 sera (n=5), linear 25AA Cys/Cys peptide as antigen.
Molecule B1 returned a blocking capacity (% of blocked versus non-blocked ELISA-reactivity) of 48%.

B6 registered a blocking capacity (% of blocked versus non-blocked ELISA-reactivity) of 72%.

B2 came in with a blocking capacity (% of blocked versus non-blocked ELISA-reactivity) of 67%.

As to B7, the blocking capacity (% of blocked versus non-blocked ELISA-reactivity) stood at 37%.

In turn, B8 came in with a blocking capacity (% of blocked versus non-blocked ELISA-reactivity) of 47%.

B9: the blocking capacity (% of blocked versus non-blocked ELISA-reactivity) worked out at 47%.

Molecule B10 displayed a blocking capacity (% of blocked versus non-blocked ELISA-reactivity) of 33%.

Molecule B4 came in with a blocking capacity (% of blocked versus non-blocked ELISA-reactivity) of 50%.

A further assay concerns the target anti-β1-ECII antibodies in rat sera preferentially reacting with the Cys/Ser mutated cyclopeptides (type1 reaction, n=64) (rat). The experiment in a line: ELISA competition, type1 sera (n=64), linear 25AA Cys/Cys peptide as antigen.
In turn, B1 returned a blocking capacity (% of blocked versus non-blocked ELISA-reactivity) of 69%.

Regarding B6, the blocking capacity (% of blocked versus non-blocked ELISA-reactivity) amounted to 65%.

B2 registered a blocking capacity (% of blocked versus non-blocked ELISA-reactivity) of 59%.

As to B7, the blocking capacity (% of blocked versus non-blocked ELISA-reactivity) turned out to be 6%.

Molecule B8 gave a blocking capacity (% of blocked versus non-blocked ELISA-reactivity) of 1%.

In turn, B9 registered a blocking capacity (% of blocked versus non-blocked ELISA-reactivity) of 69%.

As to B10, the blocking capacity (% of blocked versus non-blocked ELISA-reactivity) is 1%.

The molecule B4 yielded a blocking capacity (% of blocked versus non-blocked ELISA-reactivity) of 68%.

The target of another assay is anti-β1-ECII antibodies of GST/β1-ECII-immunized antibody-positive rats (sera or isolated IgG fractions) (rat). As to the kind of experiment: ELISA after over-night incubation of n=6 rat sera with cyclopeptide (FIG. 27B, mean).
The molecule B6 registered a blocking-efficiency (% of the ELISA signals of unblocked sera) of 73.4%.

Molecule B11 returned a blocking-efficiency (% of the ELISA signals of unblocked sera) of 74.9%.

With B2, the blocking-efficiency (% of the ELISA signals of unblocked sera) was determined as 66.1%.

Consider B12, for which the blocking-efficiency (% of the ELISA signals of unblocked sera) was determined as 82%.

As for B4, the blocking-efficiency (% of the ELISA signals of unblocked sera) stood at 60%.

For another assay the target is unchanged. As to the kind of experiment: ELISA competition, IgG of n=78 rats preincubated with peptide, linear 25AA Cys/Cys peptide as antigen.
Turning to B6, the blocking capacity (% of blocked versus non-blocked ELISA-reactivity) is 67%.

B2 yielded a blocking capacity (% of blocked versus non-blocked ELISA-reactivity) of 60%.

With B7, the blocking capacity (% of blocked versus non-blocked ELISA-reactivity) came to 6%.

For B9, the blocking capacity (% of blocked versus non-blocked ELISA-reactivity) amounted to 69%.

Consider B10, for which the blocking capacity (% of blocked versus non-blocked ELISA-reactivity) is 1%.

B5: the blocking capacity (% of blocked versus non-blocked ELISA-reactivity) was 55%.
